{"source": "patent US20020068361A1", "about": "“METHODS OF EVALUATING SPECIFIC CELLULAR FUNCTIONS OF RECEPTOR PROTEIN TYROSINE KINASES IN A LIGAND INDEPENDENT MANNER” (priority 1997, published 2002)", "key": {"chick TRKA receptor": {"target": "T1, chick TRKA receptor (Gallus gallus, UniProt Q91009)", "T1 construct": "expressed in transfected cells", "T1 sequence (Q91009 15-778)": "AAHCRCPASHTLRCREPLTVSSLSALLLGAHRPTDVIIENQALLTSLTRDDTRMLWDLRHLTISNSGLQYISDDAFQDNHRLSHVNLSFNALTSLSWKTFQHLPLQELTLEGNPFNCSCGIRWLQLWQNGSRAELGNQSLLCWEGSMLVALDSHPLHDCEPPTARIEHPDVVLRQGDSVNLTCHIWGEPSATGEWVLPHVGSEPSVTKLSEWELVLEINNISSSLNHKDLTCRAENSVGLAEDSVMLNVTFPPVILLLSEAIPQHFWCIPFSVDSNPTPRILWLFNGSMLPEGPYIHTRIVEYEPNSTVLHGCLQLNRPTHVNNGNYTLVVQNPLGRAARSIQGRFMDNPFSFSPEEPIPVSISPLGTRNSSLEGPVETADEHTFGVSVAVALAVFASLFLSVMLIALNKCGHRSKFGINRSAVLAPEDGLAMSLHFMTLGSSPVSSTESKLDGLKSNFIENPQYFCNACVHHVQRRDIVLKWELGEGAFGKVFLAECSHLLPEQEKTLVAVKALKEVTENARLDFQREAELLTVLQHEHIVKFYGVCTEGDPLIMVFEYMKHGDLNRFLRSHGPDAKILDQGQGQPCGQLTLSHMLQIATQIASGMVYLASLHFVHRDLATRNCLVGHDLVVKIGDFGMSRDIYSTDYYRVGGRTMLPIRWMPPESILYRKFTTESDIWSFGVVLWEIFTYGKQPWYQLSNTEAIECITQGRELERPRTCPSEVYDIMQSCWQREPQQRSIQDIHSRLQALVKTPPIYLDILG", "assay": "Antibody/ligand recognition of chick TRKA receptor", "type": "binding, chicken", "conditions": "immunoblot or immunoprecipitation; receptor activation", "text": "(§1) The antibody preparation used in the experiments, called CTA, was a rabbit antibody raised against the entire extracellular domain of chicken TRKA expressed in COS cells. […] A useful control for these experiments was to activate the endogenous rat TRKA receptor without influencing the introduced chimeric receptor.\n(§2) While the chick receptor became phosphorylated by both treatments, activation of the rat receptor was detected only after NGF addition. […] The effects of the CTA antibody preparation were therefore not attributable to activation of endogenous TRKA receptors."}, "rat TRKA receptor": {"target": "T2, rat TRKA receptor (Rattus norvegicus, UniProt P35739)", "T2 construct": "endogenous in cells", "T2 sequence (P35739 33-799)": "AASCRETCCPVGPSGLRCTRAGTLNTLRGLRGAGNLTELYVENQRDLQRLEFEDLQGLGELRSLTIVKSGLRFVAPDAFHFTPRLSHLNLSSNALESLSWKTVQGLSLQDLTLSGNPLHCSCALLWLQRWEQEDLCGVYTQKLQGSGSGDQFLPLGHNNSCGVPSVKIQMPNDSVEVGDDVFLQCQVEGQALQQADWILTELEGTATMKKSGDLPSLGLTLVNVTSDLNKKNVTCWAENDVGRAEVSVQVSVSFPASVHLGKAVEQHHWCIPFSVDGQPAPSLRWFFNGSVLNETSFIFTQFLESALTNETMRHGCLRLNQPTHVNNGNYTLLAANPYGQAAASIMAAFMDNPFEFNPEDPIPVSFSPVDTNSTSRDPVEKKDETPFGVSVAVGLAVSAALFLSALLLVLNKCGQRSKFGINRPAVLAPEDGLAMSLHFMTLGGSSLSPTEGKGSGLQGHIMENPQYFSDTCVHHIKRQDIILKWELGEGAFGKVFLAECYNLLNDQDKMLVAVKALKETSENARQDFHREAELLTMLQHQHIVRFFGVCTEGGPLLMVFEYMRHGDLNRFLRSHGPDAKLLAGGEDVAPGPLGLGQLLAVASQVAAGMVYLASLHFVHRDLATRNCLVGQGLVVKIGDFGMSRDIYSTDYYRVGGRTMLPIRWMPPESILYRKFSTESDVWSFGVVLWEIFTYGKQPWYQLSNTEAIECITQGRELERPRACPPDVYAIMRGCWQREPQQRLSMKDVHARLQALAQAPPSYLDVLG", "assay": "Antibody/ligand recognition of rat TRKA receptor", "type": "binding", "text": "as §1, §2"}}, "data": [{"substance": "NGF: nerve growth factor, ligand which binds to the extracellular region of the TRK receptor", "values": [{"measurement": "recognition of chick TRKA receptor", "setting": "chick TRKA receptor", "result": "binds both receptors"}, {"measurement": "recognition of rat TRKA receptor", "setting": "rat TRKA receptor", "result": "binds both receptors"}]}]}
